Source: paper PMC3373503, “Ca^2+ Regulates the Drosophila Stoned-A and Stoned-B Proteins Interaction with the C2B Domain of Synaptotagmin-1” (PLoS ONE, 2012)
Blank lines part the entries; values can stand above or below the molecule they belong to.

Assays:
Assay in all cases: pull-down; 1.5 µM GST protein as bait on glutathione resin, 0.25 µM MBP protein as prey; 2 h at 4°C; 10 mM HEPES pH 7.4, 1 mM MgCl2, 1 mg/ml BSA, 1 mM CaCl2 (Ca2+ binding buffer); eluted with glutathione, anti-MBP Western blot, densitometry
[1] = target: GST-C2B, C2B domain of Synaptotagmin-1 (wild type) (Drosophila) (UniProt P21521)
[2] = target: GST-ΔW, C2B domain of Synaptotagmin-1 truncated immediately before the WHTL motif (Drosophila) (UniProt P21521)
[3] = target: T1, GST-C2B, C2B domain of Synaptotagmin-1 (wild type) (Drosophila, UniProt P21521 323-474); details: both partners purified
T1 construct: Synaptotagmin-1 (SYT-1), Drosophila, C2B domain, printed as 'bases 323–474' (read as residues 323-474), from the Drosophila syt cDNA clone, in pGEX-4T-1; also called GST SYT-1 C2B domain; C2B SYT-1; source: E. coli, purified (glutathione resin, washed free of nucleic acids)

fold binding against binding to GST-C2A [1]: 4 fold | fold binding in Ca2+ buffer against EGTA buffer [1]: 4 fold | fold binding against binding to GST-C2B [2]: > 5 fold
Molecule: MBP-STNB (MHD), µ-homology domain of Stoned-B (from UniProt Q24212 1-1262) (domain or fragment)

fold binding against binding to GST-C2B [2]: 4 fold
Molecule: MBP-C2B, C2B domain of Synaptotagmin-1 (wild type) (from UniProt P21521 323-474) (domain or fragment)

fold binding against binding to GST-C2A [1]: 3 fold | fold binding in Ca2+ buffer against EGTA buffer [1]: 2.5 fold | fold binding against binding to GST-C2B [2]: > 3 fold
Molecule: MBP-STNA (CCD), coiled-coil domain of Stoned-A (from UniProt Q24211 1-850) (domain or fragment)

binding result [3]: binds
B1: MBP-C2B, C2B domain of Synaptotagmin-1 (wild type) (domain or fragment, Drosophila, UniProt P21521 323-474, looked up)
chain: QEKLGDICFSLRYVPTAGKLTVVILEAKNLKKMDVGGLSDPYVKIAIMQNGKRLKKKKTSIKKCTLNPYYNESFSFEVPFEQIQKICLVVTVVDYDRIGTSEPIGRCILGCMGTGTELRHWSDMLASPRRPIAQWHTLKDPEETDEILKNMK
notes: Synaptotagmin-1 (SYT-1), Drosophila, C2B domain; 'the DNA encoding the C2B domain was also inserted into pMAL-c2X'; also called full length MBP-C2B; wild-type MBP-C2B; source: E. coli, purified (amylose resin, washed free of nucleic acids)
